Results from publication PMC6098011, “Insights into degradation mechanism of N-end rule substrates by p62/SQSTM1 autophagy adapter” (Nature Communications, 2018).
pKd: −log10 of the molar value.

Columns and labels:
[1] = biological target: MBP-fused PB1-ZZ of p62 (residues 1-181) wild type (human) (UniProt Q13501); assay: SPR; BIAcore 2000; MBP-PB1-ZZ WT or D69A immobilised on CM5; R-BiP N407 5-100 μM injected; 20 mM HEPES pH 7.5, 100 mM NaCl, 1 mM DTT
MBP-PB1-ZZ D69A (human) = MBP-PB1-ZZ D69A (human) (UniProt Q13501); assay: as above

pKd [1]: 4.69
pKd (MBP-PB1-ZZ D69A (human)): 4.58
Substance: R-BiP N407 protein (from UniProt P11021 19-654) (domain or fragment)
